Assay results reported in patent US20250236667A1, “ANTIBODIES TO MUTANT CALRETICULIN AND USES THEREOF” (CENTRAL ADELAIDE LOCAL HEALTH NETWORK INC, priority 2021, published 2025).

Key:
[1] = target: T1, mutant CALR dimers and monomers bound to TpoR in TF-1 TpoR CALR^del61 (Homo sapiens, UniProt P27797); test: TpoR immunoprecipitation under non-reducing conditions; format: cell-based; details: 8 hour treatment with 20 μg/mL
T1 construct: expressed in transfected cells; host or cells: TF-1 TpoR CALR^del61
T1 sequence (P27797 with tags, fused parts or gaps limits assumed): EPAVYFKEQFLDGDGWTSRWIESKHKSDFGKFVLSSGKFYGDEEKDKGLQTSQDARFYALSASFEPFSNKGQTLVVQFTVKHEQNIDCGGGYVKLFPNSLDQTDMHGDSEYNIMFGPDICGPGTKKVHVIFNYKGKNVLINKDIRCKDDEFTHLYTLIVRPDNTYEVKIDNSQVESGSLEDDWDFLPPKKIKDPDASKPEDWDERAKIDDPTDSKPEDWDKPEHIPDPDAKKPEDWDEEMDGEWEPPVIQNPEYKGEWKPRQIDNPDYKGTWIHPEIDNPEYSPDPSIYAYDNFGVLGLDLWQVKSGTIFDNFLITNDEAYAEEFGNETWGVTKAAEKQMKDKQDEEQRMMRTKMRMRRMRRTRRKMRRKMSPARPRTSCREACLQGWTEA
Description: (§1) A. Cell extracts blotted for phospho-STAT5, total STAT5, phospho-ERK, total ERK and actin from TF-1 TpoR cells after incubation with 10 or 20 μg/mL 4D7 or IgG for 4 or 8 hours, in presence of TPO. The last line indicates TPO withdrawal. B. Similar experiment using TPO-independent TF-1 TpoR CALR^del61 cells. C. Similar experiment using TPO-independent TF-1 TpoR CALR^del52 cells at 8 hours. D. Fraction of apoptotic sub-Go population of TF-1 TpoR CALR^del61 cells after 48 hours of 4D7 or IgG treatment (n=3). E. Western blot showing caspase 3 cleavage occurring within 24 hours of TPO withdrawal in TPO dependent TF-1 TpoR cells. An increase in cleaved caspase 3 is observed after 48 hours of treatment with 20 μg/mL 4D7 in TF-1 TpoR CALR^del61 and TF-1 TpoR CALR^del52 cells. F. Western blot of TpoR immunoprecipitation under non-reducing conditions showing associated CALR 50 kDa monomers and 100 kDa dimers (arrowheads) present only in TF-1 TpoR CALR^del61 disrupted by 8 hour treatment with 20 μg/mL 4D7 but not PBS or 20 μg/mL IgG. CALR monomers & dimers are detectable by polyclonal anti-wild type CALR or anti-mutant CALR monoclonal antibodies. Arrowheads, detected mutant CALR protein: asterisk, non-specific bands. G. Proposed model for the mechanism of action of 4D7 on mutant CALR. […]

mutant CALR protein = target: T2, mutant CALR protein (Homo sapiens, UniProt P27797); test: Western blot detection of mutant CALR by hybridoma clones; format: binding
T2 construct: expressed in transfected cells; host or cells: TF-1 TpoR cells, pCX4-IRES eGFP vector
T2 sequence (P27797 with tags, fused parts or gaps limits assumed): T1 sequence (P27797 with tags, fused parts or gaps limits assumed)
Description: Rats were immunised with a CALR mutant peptide “MMRTKMRMRRMRRT RRKMRRKMSPARPRTS” coupled to KLH, this peptide sequence is unique to CALR mutant. Serum from the immunised rats was screened by enzyme linked immunoassay, to verify a strong titre to the peptide immunogen, prior to performing the hybridoma fusion. Immunised rat spleen cells were harvested and a spleen single cell suspension was combined with Sp2/O myeloma cell line. The cell mixture was treated with polyethylene glycol plus DMEM prior to been plated in 96 well flat bottom plates. The expanding hybridomas were screened initially by ELISA and the positive clones were further verified by western blot, for reactivity to the expressed CALR mutant protein before subcloning the hybridomas for antibody production.
For immunoblotting of total lysates, cells were lysed in NP40 buffer containing 150 mM NaCl, 50 mM Tris pH 7.6, 1% NP-40, supplemented with protease inhibitors (Complete, Roche) and phosphatase inhibitor cocktails, and boiled for 5 minutes after addition of sample buffer (60 mM Tris pH 6.8, 5% glycerol, 1% SDS, 2% β-mercaptoethanol, 0.02% bromophenol blue) before SDS gel electrophoresis followed by Western blotting (Tvorogov et al, 2010). Primary antibodies against pERK (#9101), pSTAT5 (#9359), ERK (#4695), Actin (#4970), Caspase 3 (#14220), wildtype CALR (#12238) were purchased from Cell Signalling. Primary antibodies against pSTATI (#612233), pSTAT3 (#612357), STATI (#610186), STAT3 (#610190), STAT5 (#610192) and Anti-phosphotyrosine 4G10 (#610012) were purchased from BD Biosciences. Mutant CALR monoclonal antibody CAL2 was purchased from Dianova (Hamburg, Germany). Immunopreciptation of TpoR was performed in standard NP40 lysis buffer with additional 50 mM iodoacetamide to avoid any de novo disulfide bond formation post lysis. To reduce IgG background during immunoprecipitation anti-FLAG conjugated to magnetic beads (Sigma, #M8823) were used. For this same reason, anti-FLAG-HRP conjugated antibodies (Sigma, #A8592) were used in western blotting.

[2] = system: TF-1 TpoR CALR^del61 and TF-1 TpoR CALR^del52 cells; test: Western blot of caspase 3 cleavage; format: cell-based, human; details: after 4D7 treatment, 20 μg/mL
Description: as §1

[3] = system: TF-1 TpoR CALR^del52 cells; test: Cell proliferation, trypan blue exclusion; format: cell-based, human; details: over 5 days at 2, 10 and 20 μg/mL
Description: (§2) In brief, cells were seeded at 5×10^4/mL in standard growth media, with any necessary cytokines, and the addition of 20 μg/mL IgG or 2, 10 or 20 μg/mL 4D7. Cells were seeded in triplicate and each well was counted in triplicate every 24 hours for 5 days using trypan blue exclusion.

[4] = system: TF-1 cells expressing TpoR alone (endogenous wild type CALR); test: Cell proliferation, trypan blue exclusion; format: cell-based, human; details: in presence of TPO; 2, 10 or 20 μg/mL
Description: as §2

B1: 4D7: rat monoclonal IgG2a antibody against the mutant CALR neoepitope; VH SEQ ID NO: 5, VL SEQ ID NO: 7 (antibody, listed as Rattus rattus, V domains shown)
VH: QVQLQQSGAELAKPGSSVKISCKASGYTFTNYDMSWIKQRPGQALEWIGAINPGNGVTDYNEKFRGKATLTVDKSSSTAFMQLSSLTPEDTAVYHCAREYRDNYGYFDYWGQGVMVTVSS
VL: DIVLTQTPVSLSVTLGDQASISCRSSQSLEYSDGYTYLDWFLQKPGQSPQLLIYEVSSRFSGVPDRFIGRGSGTDFTLKISRVEPEDLGVYYCFQATHDPFTFGSGTKLEIK
[1]
  presence of CALR disulfide-linked dimers and CALR monomers bound to TpoR: diminished
Mutant CALR protein; 3 hybridoma screens, FIG. 6A
  reactivity to the peptide and CALR mutant protein among hybridoma clones: strongest reactivity
Mutant CALR protein; TF-1 TpoR CALR^del61 vs CALR wild type TF-1 cells
  detection of mutant CALR protein by Western blot: able to detect mutant CALR protein in CALR^del61 cells but not in CALR wild type TF-1 cells
[2]
  time at which caspase 3 cleavage occurred: ≤ 24 h
  time at which caspase 3 cleavage peaked: 48 h
[3]
  TPO-independent cell growth: blockade of TPO-independent cell growth
[4]
  inhibition of proliferation: no inhibition
